Measurements published in patent publication US20150344570A1 (published 2015).
Where a chain is given by its changes, count along the chain named. In names and notes the source's numbering stands.

T1: FcγRIIa R (human, UniProt P12318 34-217)
T1 construct: extracellular domain; also called FcgRIIa R type; 2aR; not shown: His tag at the C terminus
T1 sequence (looked up): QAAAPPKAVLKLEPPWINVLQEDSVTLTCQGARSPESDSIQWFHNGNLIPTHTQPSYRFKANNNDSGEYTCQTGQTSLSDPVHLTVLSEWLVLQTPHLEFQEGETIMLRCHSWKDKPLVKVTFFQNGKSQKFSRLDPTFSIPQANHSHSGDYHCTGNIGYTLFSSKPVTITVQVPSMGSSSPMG

T2: FcγRIIb (human, UniProt P31994 43-217)
T2 construct: extracellular domain; also called FcgRIIb; 2b; not shown: His tag at the C terminus
T2 sequence (looked up): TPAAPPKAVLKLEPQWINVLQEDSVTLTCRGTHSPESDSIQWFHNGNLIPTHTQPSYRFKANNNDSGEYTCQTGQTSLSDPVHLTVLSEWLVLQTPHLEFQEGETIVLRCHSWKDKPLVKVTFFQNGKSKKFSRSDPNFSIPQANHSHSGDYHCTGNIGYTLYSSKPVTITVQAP

T3: FcγRIIa H (FcγRIIa type H, His at position 131), extracellular domain with C-terminal His tag (human, UniProt P12318 34-217)
T3 construct: extracellular domain; also called FcgRIIa H; 2aH
T3 sequence (looked up): T1 sequence (looked up) with R134H

T4: FcγRIIa H (human, UniProt P12318 34-217)
T4 construct: extracellular domain; also called FcgRIIa H; FcγRIIa type H
T4 sequence (looked up): T1 sequence (looked up) with R134H

T5: FcγRIIb (human, UniProt P31994 43-217)
T5 construct: extracellular domain; also called FcgRIIb; 2b
T5 sequence (looked up): T2 sequence (looked up)

B1: GpH7-A5/GpH7-B3 variant A327_01G/GpL16-k0 (antibody, human IgG1, kappa)
heavy 1: not shown
heavy 2: not shown
light: DIVMTQSPLSLPVTPGEPASISCQASESLVHSNRNTYLHWYLQKPGQSPQLLIYKVSNRFSGVPDRFSGSGSGTDFTLKISRVEAEDVGVYYCSQNTHVPPTFGQGTKVEIERTVAAPSVFIFPPSDEQLKSGTASVVCLLNNFYPREAKVQWKVDNALQSGNSQESVTEQDSKDSTYSLSSTLTLSKADYEKHKVYACEVTHQGLSSPVTKSFNRGEC
notes: Heterodimerized anti-glypican-3 IgG1; mutation in the GpH7-B3 chain only; also called He Ab
B2: GpH7-A5/GpH7-B3 variant I332_02A/GpL16-k0 (antibody, human IgG1, kappa)
heavy 1: not shown
heavy 2: not shown
light: B1 light
notes: as for B1
B3: GpH7-A5/GpH7-B3 variant L328_19Q/GpL16-k0 (antibody, human IgG1, kappa)
heavy 1: not shown
heavy 2: not shown
light: B1 light
notes: as for B1
B4: GpH7-A5/GpH7-B3 variant S239_03V/GpL16-k0 (antibody, human IgG1, kappa)
heavy 1: not shown
heavy 2: not shown
light: B1 light
notes: as for B1
B5: GpH7-A5/GpH7-B3 variant Y300_19Q/GpL16-k0 (antibody, human IgG1, kappa)
heavy 1: not shown
heavy 2: not shown
light: B1 light
notes: as for B1
B6: GpH7-B3 variant I332_02A/GpL16-k0 (antibody, human IgG1, kappa)
heavy: not shown
light: B1 light
notes: both H chains mutated; also called Ho Ab
B7: GpH7-B3 variant A330_12R/GpL16-k0 (antibody, human IgG1, kappa)
heavy: not shown
light: B1 light
notes: as for B6
B8: GpH7-B3 variant G236_03V/GpL16-k0 (antibody, human IgG1, kappa)
heavy: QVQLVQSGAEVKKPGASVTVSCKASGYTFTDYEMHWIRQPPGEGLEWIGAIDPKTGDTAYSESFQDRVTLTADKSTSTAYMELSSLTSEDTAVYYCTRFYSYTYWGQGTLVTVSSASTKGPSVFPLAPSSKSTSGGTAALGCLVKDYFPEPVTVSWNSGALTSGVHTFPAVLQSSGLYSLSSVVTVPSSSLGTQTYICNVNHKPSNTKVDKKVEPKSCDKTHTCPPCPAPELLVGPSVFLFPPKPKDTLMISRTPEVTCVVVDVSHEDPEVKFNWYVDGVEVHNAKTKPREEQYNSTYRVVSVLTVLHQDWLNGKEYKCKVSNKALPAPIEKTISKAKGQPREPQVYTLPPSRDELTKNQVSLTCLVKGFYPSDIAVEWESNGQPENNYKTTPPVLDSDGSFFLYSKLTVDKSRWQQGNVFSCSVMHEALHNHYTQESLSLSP
light: B1 light
notes: as for B6
B9: GpH7-B3 variant G236_07I/GpL16-k0 (antibody, human IgG1, kappa)
heavy: not shown
light: B1 light
notes: as for B6
B10: GpH7-B3 variant G236_10E/GpL16-k0 (antibody, human IgG1, kappa)
heavy: not shown
light: B1 light
notes: as for B6
B11: GpH7-B3 variant H268_09D/GpL16-k0 (antibody, human IgG1, kappa)
heavy: not shown
light: B1 light
notes: as for B6
B12: GpH7-B3 variant H268_10E/GpL16-k0 (antibody, human IgG1, kappa)
heavy: not shown
light: B1 light
notes: as for B6
B13: GpH7-B3 variant H268_13S/GpL16-k0 (antibody, human IgG1, kappa)
heavy: not shown
light: B1 light
notes: as for B6
B14: GpH7-B3 variant H268_18N/GpL16-k0 (antibody, human IgG1, kappa)
heavy: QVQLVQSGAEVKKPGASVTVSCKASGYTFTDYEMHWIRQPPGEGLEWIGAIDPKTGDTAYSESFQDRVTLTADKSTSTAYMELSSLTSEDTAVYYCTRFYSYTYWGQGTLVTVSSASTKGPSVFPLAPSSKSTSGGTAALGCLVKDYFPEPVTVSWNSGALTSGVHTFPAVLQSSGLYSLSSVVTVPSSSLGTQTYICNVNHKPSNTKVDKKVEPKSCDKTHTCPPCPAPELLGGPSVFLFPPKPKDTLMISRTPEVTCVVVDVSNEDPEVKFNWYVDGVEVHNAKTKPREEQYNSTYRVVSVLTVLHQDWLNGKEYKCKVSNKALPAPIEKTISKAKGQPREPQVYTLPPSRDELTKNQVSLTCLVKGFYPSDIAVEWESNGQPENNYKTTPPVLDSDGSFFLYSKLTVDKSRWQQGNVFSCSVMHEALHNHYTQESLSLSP
light: B1 light
notes: as for B6
B15: GpH7-B3 variant I332_03V/GpL16-k0 (antibody, human IgG1, kappa)
heavy: not shown
light: B1 light
notes: as for B6
B16: GpH7-B3 variant I332_04F/GpL16-k0 (antibody, human IgG1, kappa)
heavy: not shown
light: B1 light
notes: as for B6
B17: GpH7-B3 variant I332_06M/GpL16-k0 (antibody, human IgG1, kappa)
heavy: not shown
light: B1 light
notes: as for B6
B18: GpH7-B3 variant I332_09D/GpL16-k0 (antibody, human IgG1, kappa)
heavy: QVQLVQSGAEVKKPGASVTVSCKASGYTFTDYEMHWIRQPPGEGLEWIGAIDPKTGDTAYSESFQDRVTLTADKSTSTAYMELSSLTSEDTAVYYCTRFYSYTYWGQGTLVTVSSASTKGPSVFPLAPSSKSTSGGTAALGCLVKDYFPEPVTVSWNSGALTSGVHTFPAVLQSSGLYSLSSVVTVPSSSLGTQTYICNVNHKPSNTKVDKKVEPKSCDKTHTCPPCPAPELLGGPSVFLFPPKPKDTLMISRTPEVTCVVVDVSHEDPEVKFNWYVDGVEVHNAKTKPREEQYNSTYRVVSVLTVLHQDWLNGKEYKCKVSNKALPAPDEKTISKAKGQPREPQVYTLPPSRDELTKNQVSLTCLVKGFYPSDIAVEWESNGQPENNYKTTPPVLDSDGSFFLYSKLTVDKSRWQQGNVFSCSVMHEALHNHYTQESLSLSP
light: B1 light
notes: as for B6
B19: GpH7-B3 variant I332_10E/GpL16-k0 (antibody, human IgG1, kappa)
heavy: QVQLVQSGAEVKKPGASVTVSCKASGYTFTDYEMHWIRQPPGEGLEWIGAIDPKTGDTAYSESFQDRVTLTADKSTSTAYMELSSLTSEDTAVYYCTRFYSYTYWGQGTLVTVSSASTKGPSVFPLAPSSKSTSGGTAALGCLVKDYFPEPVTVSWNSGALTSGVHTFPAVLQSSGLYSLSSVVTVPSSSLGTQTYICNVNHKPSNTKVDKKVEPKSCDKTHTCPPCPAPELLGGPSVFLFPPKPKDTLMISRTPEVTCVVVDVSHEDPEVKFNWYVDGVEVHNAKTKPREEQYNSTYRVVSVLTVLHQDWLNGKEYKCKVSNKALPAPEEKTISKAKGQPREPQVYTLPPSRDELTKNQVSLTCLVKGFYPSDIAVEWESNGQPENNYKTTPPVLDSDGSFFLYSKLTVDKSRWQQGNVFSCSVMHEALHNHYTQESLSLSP
light: B1 light
notes: as for B6
B20: GpH7-B3 variant I332_13S/GpL16-k0 (antibody, human IgG1, kappa)
heavy: not shown
light: B1 light
notes: as for B6
B21: GpH7-B3 variant I332_14T/GpL16-k0 (antibody, human IgG1, kappa)
heavy: not shown
light: B1 light
notes: as for B6
B22: GpH7-B3 variant I332_15Y/GpL16-k0 (antibody, human IgG1, kappa)
heavy: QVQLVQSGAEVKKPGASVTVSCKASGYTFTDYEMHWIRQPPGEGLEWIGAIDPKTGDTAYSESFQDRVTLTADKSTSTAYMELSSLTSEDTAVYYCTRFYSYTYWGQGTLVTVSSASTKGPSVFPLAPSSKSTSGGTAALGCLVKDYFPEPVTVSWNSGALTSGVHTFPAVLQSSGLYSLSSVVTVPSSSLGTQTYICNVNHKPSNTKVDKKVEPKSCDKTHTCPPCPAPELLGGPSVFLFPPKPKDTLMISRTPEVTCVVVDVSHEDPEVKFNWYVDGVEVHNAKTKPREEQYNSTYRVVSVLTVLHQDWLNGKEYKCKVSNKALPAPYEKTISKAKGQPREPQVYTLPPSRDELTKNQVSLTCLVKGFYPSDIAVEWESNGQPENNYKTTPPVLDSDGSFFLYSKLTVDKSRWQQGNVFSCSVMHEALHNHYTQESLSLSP
light: B1 light
notes: as for B6
B23: GpH7-B3 variant I332_16H/GpL16-k0 (antibody, human IgG1, kappa)
heavy: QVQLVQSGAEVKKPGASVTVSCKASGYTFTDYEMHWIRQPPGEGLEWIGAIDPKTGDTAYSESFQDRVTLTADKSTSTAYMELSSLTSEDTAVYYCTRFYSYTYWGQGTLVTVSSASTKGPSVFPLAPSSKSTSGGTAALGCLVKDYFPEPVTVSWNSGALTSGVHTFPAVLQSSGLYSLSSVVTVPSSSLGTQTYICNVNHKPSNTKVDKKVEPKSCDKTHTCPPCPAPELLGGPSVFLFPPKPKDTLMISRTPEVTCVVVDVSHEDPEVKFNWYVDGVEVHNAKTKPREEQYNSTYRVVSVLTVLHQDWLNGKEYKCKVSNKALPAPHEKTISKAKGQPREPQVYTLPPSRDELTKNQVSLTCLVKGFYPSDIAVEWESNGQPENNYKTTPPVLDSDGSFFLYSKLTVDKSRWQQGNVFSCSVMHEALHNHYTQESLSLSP
light: B1 light
notes: as for B6
B24: GpH7-B3 variant I332_18N/GpL16-k0 (antibody, human IgG1, kappa)
heavy: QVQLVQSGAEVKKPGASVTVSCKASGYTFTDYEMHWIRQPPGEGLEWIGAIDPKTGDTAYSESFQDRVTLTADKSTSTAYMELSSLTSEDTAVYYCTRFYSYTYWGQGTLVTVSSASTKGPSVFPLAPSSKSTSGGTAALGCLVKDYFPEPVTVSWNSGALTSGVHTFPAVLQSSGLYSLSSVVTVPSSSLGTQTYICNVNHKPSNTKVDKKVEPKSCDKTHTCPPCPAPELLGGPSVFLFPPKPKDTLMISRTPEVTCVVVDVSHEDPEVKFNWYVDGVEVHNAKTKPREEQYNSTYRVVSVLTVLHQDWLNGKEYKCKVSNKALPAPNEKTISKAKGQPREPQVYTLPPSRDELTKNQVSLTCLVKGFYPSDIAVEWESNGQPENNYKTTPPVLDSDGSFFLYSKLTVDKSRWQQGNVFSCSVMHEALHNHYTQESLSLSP
light: B1 light
notes: as for B6
B25: GpH7-B3 variant I332_19Q/GpL16-k0 (antibody, human IgG1, kappa)
heavy: not shown
light: B1 light
notes: as for B6
B26: GpH7-B3 variant I336_06M/GpL16-k0 (antibody, human IgG1, kappa)
heavy: not shown
light: B1 light
notes: as for B6
B27: GpH7-B3 variant I336_08L/GpL16-k0 (antibody, human IgG1, kappa)
heavy: not shown
light: B1 light
notes: as for B6
B28: GpH7-B3 variant K326_06M/GpL16-k0 (antibody, human IgG1, kappa)
heavy: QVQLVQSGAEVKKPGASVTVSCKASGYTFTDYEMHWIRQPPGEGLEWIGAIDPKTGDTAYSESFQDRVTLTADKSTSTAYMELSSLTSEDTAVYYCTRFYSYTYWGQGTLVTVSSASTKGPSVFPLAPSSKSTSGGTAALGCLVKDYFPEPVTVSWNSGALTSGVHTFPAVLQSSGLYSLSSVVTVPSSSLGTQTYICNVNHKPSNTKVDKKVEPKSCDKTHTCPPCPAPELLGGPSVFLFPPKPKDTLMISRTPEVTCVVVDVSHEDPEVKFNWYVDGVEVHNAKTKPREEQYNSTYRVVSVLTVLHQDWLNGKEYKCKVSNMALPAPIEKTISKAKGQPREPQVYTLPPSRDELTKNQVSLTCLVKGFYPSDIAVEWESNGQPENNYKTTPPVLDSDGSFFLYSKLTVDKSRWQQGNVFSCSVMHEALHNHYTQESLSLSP
light: B1 light
notes: as for B6
B29: GpH7-B3 variant K326_09D/GpL16-k0 (antibody, human IgG1, kappa)
heavy: not shown
light: B1 light
notes: as for B6
B30: GpH7-B3 variant K326_10E/GpL16-k0 (antibody, human IgG1, kappa)
heavy: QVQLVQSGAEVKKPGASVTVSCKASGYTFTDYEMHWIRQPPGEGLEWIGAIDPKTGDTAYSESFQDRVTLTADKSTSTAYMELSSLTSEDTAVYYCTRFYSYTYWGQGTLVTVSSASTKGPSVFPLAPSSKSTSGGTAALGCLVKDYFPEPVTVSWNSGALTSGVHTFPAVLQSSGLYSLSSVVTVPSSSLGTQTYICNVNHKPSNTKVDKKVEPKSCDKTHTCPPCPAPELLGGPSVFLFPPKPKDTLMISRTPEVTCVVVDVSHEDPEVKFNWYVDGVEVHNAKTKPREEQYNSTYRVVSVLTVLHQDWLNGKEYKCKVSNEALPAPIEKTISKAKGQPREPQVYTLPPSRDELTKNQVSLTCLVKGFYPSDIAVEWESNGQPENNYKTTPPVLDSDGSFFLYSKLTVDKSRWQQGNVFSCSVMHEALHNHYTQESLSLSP
light: B1 light
notes: as for B6
B31: GpH7-B3 variant K326_14T/GpL16-k0 (antibody, human IgG1, kappa)
heavy: not shown
light: B1 light
notes: as for B6
B32: GpH7-B3 variant K326_19Q/GpL16-k0 (antibody, human IgG1, kappa)
heavy: not shown
light: B1 light
notes: as for B6
B33: GpH7-B3 variant K334_03V/GpL16-k0 (antibody, human IgG1, kappa)
heavy: not shown
light: B1 light
notes: as for B6
B34: GpH7-B3 variant K334_04F/GpL16-k0 (antibody, human IgG1, kappa)
heavy: not shown
light: B1 light
notes: as for B6
B35: GpH7-B3 variant K334_07[ (read as K334_07I)/GpL16-k0 (antibody, human IgG1, kappa)
heavy: not shown
light: B1 light
notes: as for B6
B36: GpH7-B3 variant K334_08L/GpL16-k0 (antibody, human IgG1, kappa)
heavy: not shown
light: B1 light
notes: as for B6
B37: GpH7-B3 variant K334_14T/GpL16-k0 (antibody, human IgG1, kappa)
heavy: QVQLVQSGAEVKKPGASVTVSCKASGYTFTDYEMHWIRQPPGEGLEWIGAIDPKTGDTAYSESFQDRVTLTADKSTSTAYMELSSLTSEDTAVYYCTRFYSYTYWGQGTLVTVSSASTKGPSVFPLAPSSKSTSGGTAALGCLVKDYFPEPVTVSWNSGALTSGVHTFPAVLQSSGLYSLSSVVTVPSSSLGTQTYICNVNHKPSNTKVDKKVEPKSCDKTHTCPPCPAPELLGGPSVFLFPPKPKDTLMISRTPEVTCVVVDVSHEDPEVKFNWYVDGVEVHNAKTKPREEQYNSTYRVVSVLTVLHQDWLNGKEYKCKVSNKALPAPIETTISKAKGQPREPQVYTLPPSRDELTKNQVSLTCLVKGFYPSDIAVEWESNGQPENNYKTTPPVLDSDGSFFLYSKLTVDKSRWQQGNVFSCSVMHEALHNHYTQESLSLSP
light: B1 light
notes: as for B6
B38: GpH7-B3 variant K334_15Y/GpL16-k0 (antibody, human IgG1, kappa)
heavy: not shown
light: B1 light
notes: as for B6
B39: GpH7-B3 variant K334_16H/GpL16-k0 (antibody, human IgG1, kappa)
heavy: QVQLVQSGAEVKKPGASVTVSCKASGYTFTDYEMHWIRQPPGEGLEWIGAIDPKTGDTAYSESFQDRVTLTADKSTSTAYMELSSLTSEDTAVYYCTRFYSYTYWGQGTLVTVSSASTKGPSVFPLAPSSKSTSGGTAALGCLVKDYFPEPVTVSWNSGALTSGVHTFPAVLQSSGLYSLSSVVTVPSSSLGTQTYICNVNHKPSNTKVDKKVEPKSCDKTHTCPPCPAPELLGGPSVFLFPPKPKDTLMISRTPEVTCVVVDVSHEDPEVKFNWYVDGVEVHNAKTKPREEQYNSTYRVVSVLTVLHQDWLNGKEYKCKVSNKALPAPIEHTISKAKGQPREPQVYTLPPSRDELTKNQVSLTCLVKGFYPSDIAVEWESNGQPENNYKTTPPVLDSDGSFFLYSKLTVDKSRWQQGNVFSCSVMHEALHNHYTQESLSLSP
light: B1 light
notes: as for B6
B40: GpH7-B3 variant L235_20W/GpL16-k0 (antibody, human IgG1, kappa)
heavy: not shown
light: B1 light
notes: as for B6
B41: GpH7-B3 variant L328_02A/GpL16-k0 (antibody, human IgG1, kappa)
heavy: not shown
light: B1 light
notes: as for B6
B42: GpH7-B3 variant L328_06M/GpL16-k0 (antibody, human IgG1, kappa)
heavy: not shown
light: B1 light
notes: as for B6
B43: GpH7-B3 variant L328_13S/GpL16-k0 (antibody, human IgG1, kappa)
heavy: not shown
light: B1 light
notes: as for B6
B44: GpH7-B3 variant L328_14T/GpL16-k0 (antibody, human IgG1, kappa)
heavy: not shown
light: B1 light
notes: as for B6
B45: GpH7-A5/GpH7-B3 variant Y300_10E/GpL16-k0 (antibody, human IgG1, kappa)
heavy 1: not shown
heavy 2: not shown
light: B1 light
notes: Heterodimerized antibody, alteration in one H chain only; also called He Ab Y300E
B46: GpH7-A5/GpH7-B3 variant Y300_19Q/GpL16-k0 (antibody, human IgG1, kappa)
heavy 1: not shown
heavy 2: not shown
light: B1 light
notes: Heterodimerized antibody, alteration in one H chain only; also called He Ab Y300Q

Target: T1, FcγRIIa R
Experiment: SPR, relative to GpH7-A5/GpH7-B3/GpL16-k0

Binder	He/Con_2aR
B1	98.2 control = 100
B2	97.6 control = 100
B3	89.3 control = 100
B4	99.9 control = 100
B5	99.7 control = 100

Target: T2, FcγRIIb
Experiment: SPR, relative to GpH7-A5/GpH7-B3/GpL16-k0

Binder	He/Con_2b
B1	116 control = 100
B2	103 control = 100
B3	105 control = 100
B4	108 control = 100
B5	108 control = 100

Target: T3, FcγRIIa H (FcγRIIa type H, His at …)
Experiment: SPR Biacore, relative binding, GpH7-B3/GpL16-k0 (HoCon Ab)=100
Description: Analysis of interaction between objective antibody and the FcγR was carried out using Biacore T100 (GE Healthcare). HBS-EP+ (GE Healthcare) was used as the running buffer, and the measurement temperature was set to 25° C. Chips produced by immobilizing the antigen peptide by the amine coupling method to a Series S Sencor Chip CM5 (GE Healthcare), or alternatively, chips produced by allowing preliminarily biotinylated antigen peptides to interact with and immobilize onto a Series S Sensor Chip SA (certified) (GE Healthcare) were used. Antibodies of interest were captured onto an antigen peptide-immobilized chip, and allowed to interact to each FcγR diluted with running buffer. To regenerate and repeatedly use the chip, the antibodies captured on the chip were washed off by reacting 10 mM glycine-HCl, pH 1.5.

Binder	Ho/Con_2aH
B6	119 % of control
B7	110 % of control
B8	111 % of control
B9	101 % of control
B10	122 % of control
B11	136 % of control
B12	126 % of control
B13	114 % of control
B14	110 % of control
B15	106 % of control
B16	111 % of control
B17	114 % of control
B18	130 % of control
B19	117 % of control
B20	121 % of control
B21	125 % of control
B22	126 % of control
B23	119 % of control
B24	118 % of control
B25	114 % of control

Binder	Ho/Con_2aH
B26	100 % of control
B27	101 % of control
B28	101 % of control
B29	113 % of control
B30	101 % of control
B31	118 % of control
B32	100 % of control
B33	111 % of control
B34	103 % of control
B35	116 % of control
B36	103 % of control
B37	105 % of control
B38	110 % of control
B39	101 % of control
B40	112 % of control
B41	134 % of control
B42	100 % of control
B43	131 % of control
B44	110 % of control

Target: T4, FcγRIIa H
Experiment: SPR (Biacore), antibody captured, FcγR analyte; binding relative to GpH7-A5/GpH7-B3/GpL16-k0 = 100

Binder	He/Con_2aH
B45	97.2 % of control
B46	96.1 % of control

Target: T5, FcγRIIb
Experiment: as above

Binder	He/Con_2b
B45	134 % of control
B46	108 % of control
